Test results from paper PMC5888579.

Biological target: FEN1 (human, UniProt P39748 2-380)
Assay: smFRET kinetics

Chain of FEN1 (P39748 2-380): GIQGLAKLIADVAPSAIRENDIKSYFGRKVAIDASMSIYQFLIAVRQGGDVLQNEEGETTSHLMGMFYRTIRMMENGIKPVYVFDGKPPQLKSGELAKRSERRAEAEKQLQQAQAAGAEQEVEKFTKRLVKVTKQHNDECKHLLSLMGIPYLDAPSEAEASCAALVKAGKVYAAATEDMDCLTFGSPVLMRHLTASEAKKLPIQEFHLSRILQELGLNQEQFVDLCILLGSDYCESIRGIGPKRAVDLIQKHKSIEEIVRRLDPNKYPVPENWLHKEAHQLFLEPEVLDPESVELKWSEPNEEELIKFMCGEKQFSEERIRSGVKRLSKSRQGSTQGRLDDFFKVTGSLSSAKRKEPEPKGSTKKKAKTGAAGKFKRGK

B1: NickInternal (dsDNA)
DNA 1: TGACCGTGTTTGACGGTCGTGAGGAGGAAAGTTCCTCCTACGGCAG
DNA 2: CTGCCGTAGGAGGAACTTTCCTCCTC
DNA 3: ACGACCGTCAAACAACGGTCA
modifications: 5' phosphate at nick; biotin; iCy3 internal in template
  Kd: 62 ± 9 nM
